Results taken from patent US20240082434A1.

Molecular target: CA1.CD2 PEGylated with P40 (rat)
Assay: Western blot; PEGylated (P40) against unmodified CA1.CD2

decrease of binding against unPEGylated CA1.CD2: 50%
Substance: antibody OX34
